Laboratory results reported in patent US20230241243A1, “CARRIER PARTICLE-DRUG CONJUGATES, SELF-IMMOLATIVE LINKERS, AND USES THEREOF” (priority 2020, published 2023).

Test: Drug-release assay of nanoparticle-conjugated linker-payloads under cleavage conditions (Cat-B, redox-responsive or pH-sensitive cleaving study), RP-HPLC
Type: in vitro ADME
Details: linker-payload conjugated to DBCO-functionalized silica nanoparticle, 37° C., 24 hours
Method: To assess the drug releasing profile of exemplary linker-drug conjugates, the linker-drug conjugates were each conjugated to a DBCO-functionalized ultrasmall silica nanoparticle via a click chemistry reaction between the azide groups on the linker-drug conjugate precursors and the dibenzocyclooctyne (DBCO) groups of the nanoparticles. The resulting drug-nanoparticle-conjugates were then incubated under the desired releasing conditions for release kinetics tests.
The amount of released drugs vs non-released drugs was measured using reverse phase HPLC by analyzing the area under curve (AUC) (FIG. 10A and FIG. 10B).
General Method: A Waters Xbridge Peptide BEH C18 column with 4.6 mm×50 mm dimensions, a particle size of 5 μm, and a pore size of 300 A was used (part number 186003622). Acetonitrile (VWR HiPerSolv Chromanorm, UHPLC Grade) was used as received without further preparation, […] trifluoroacetic acid in deionized water was prepared by adding 1 mL of trifluoroacetic acid (HPLC grade, Millipore-Sigma) into 999 mL 18.2 MΩ·cm deionized water that was generated using an IQ7000 Millipore deionized water system and passed through a 0.2 μm filter before use. The seal wash used for the system was composed of 90% 18.2 MΩ·cm deionized water and 10% methanol (HPLC grade, VWR). The injection needle was washed using a mixture of 25 vol % 18.2 MΩ·cm deionized water, 25 vol % acetonitrile, 25 vol % methanol, and 25 vol % 2-propanol. Samples were prepared in a concentration range of 0.25 to 2 μM and the injection volume ranges from 60 μL to 10 μL, respectively. Higher sample concentration can be used if detector signal is low. Vials used for all injections are fresh Waters Total Recovery vials with screw caps that have pre-slit PTFE septa (part number 186000385C).
Method for Protease-cleavable and Redox-responsive Linkers: Before any sample injections were started, the PDA lamp was turned on and allowed to warm up for at least 30 minutes. The system and column were equilibrated with 95% 0.01% TFA in deionized water, 5% acetonitrile for at least 10 minutes at a flow rate of 1.0 mL/min after the PDA lamp had warmed up. Two blank injections, with injection volumes of 10 μL containing only 18.2 MΩ·cm deionized water, were performed before the injection of any samples for analysis. The gradient used to elute protease-cleavable and redox-sensitive linkers conjugated to hybrid silica nanoparticles, and their components began at 95% 0.01% TFA in deionized water and 5% acetonitrile and linearly changed to 15% 0.01% TFA in deionized water, 85% acetonitrile over 8 minutes. Acetonitrile composition was increased to 95% over an additional minute and held at 95% for an additional 2 minutes to ensure that any strongly retained compounds are eluted. The composition of the solvent was then changed back to the starting composition of the gradient over an additional minute and allowed to equilibrate for 3 minutes before another injection began. Between sample injections a blank injection was run to ensure that no carryover occurred.
Method for pH-sensitive Linkers: Before any sample injections were started, the PDA lamp was turned on and allowed to warm up for at least 30 minutes. A gradient of pure deionized water and acetonitrile was used, all other consumables including column and vials were the same as for the method to purify Cat-B sensitive and redox-responsive linkers elaborated on above. Briefly the gradient composition began at 95% deionized water and 5% acetonitrile at a flow rate of 1.0 mL/min (not changed throughout the method). The composition was changed from this starting composition to 15% deionized water and 85% acetonitrile over a 12-minute period, during which the retained drug-linkers, released drug, free drug linker, and any other impurities eluted. At the 12-minute mark the composition was rapidly changed to 5% deionized water and 95% acetonitrile over the course of one minute. […]
For `CC[C@@]1(O)C(=O)OCc2c1cc1n(c2=O)Cc2c-1nc1cc(F)c(C)c3c1c2[C@@H](NCc1ccc(NC(=O)[C@H](CCCNC(N)=O)NC(=O)[C@@H](NC(=O)CCOCCOCCOCCOCCOCCOCCOCCOCCOCCN=[N+]=[N-])C(C)C)cn1)CC3` [Example 46, 1-azido-N-((S)-1-(((S)-1-((6-((((1S,9S)-9-ethyl-5-fluoro-9-hydroxy-4-methyl-10,13-dioxo-2,3,9,10,13,15-hexahydro-1H,12H-benzo[de]pyrano[3′,4′:6,7]indolizino[1,2-b]quinolin-1-yl)amino)methyl)pyridin-3-yl)amino)-1-oxo-5-ureidopentan-2-yl)amino)-3-methyl-1-oxobutan-2-yl)-3,6,9,12,15,18,21,24,27-nonaoxatriacontan-30-amide], the “% of Payload Release in 24 Hours Under Cleavage Conditions” value was “+ (‘+’ indicates 5-25% release)”.
With `CCc1c2c(nc3ccc(OCCCSSC(C)(C)CNC(=O)CCOCCOCCOCCOCCOCCN=[N+]=[N-])cc13)-c1cc3c(c(=O)n1C2)COC(=O)[C@]3(O)CC` [Example 54, (S)-1-azido-N-(2-((3-((4,11-diethyl-4-hydroxy-3,14-dioxo-3,4,12,14-tetrahydro-1H-pyrano[3′,4′:6,7]indolizino[1,2-b]quinolin-9-yl)oxy)propyl)disulfanyl)-2-methylpropyl)-3,6,9,12,15-pentaoxaoctadecan-18-amide] the “% of Payload Release in 24 Hours Under Cleavage Conditions” value was “+ (‘+’ indicates 5-25% release)”.
In the case of `CCc1c2c(nc3ccc(OCCCNC(=O)OCc4ccc(NC(=O)[C@H](CCCCN)NC(=O)[C@@H](NC(=O)CCOCCOCCOCCOCCOCCOCCOCCOCCOCCN=[N+]=[N-])C(C)C)cc4)cc13)-c1cc3c(c(=O)n1C2)COC(=O)[C@]3(O)CC` [Example 31, 4-((32S,35S)-35-(4-aminobutyl)-1-azido-32-isopropyl-30,33-dioxo-3,6,9,12,15,18,21,24,27-nonaoxa-31,34-diazahexatriacontan-36-amido)benzyl (3-(((S)-4,11-diethyl-4-hydroxy-3,14-dioxo-3,4,12,14-tetrahydro-1H-pyrano[3′,4′:6,7]indolizino[1,2-b]quinolin-9-yl)oxy)propyl)carbamate], the “% of Payload Release in 24 Hours Under Cleavage Conditions” value is reported as “+ (‘+’ indicates 5-25% release)”.
For `CCc1c2c(nc3ccc(OCCCNC(=O)OCCSSCCNC(=O)CCOCCOCCOCCOCCOCCOCCOCCOCCOCCN=[N+]=[N-])cc13)-c1cc3c(c(=O)n1C2)COC(=O)[C@]3(O)CC` [Example 61, 37-Azido-8-oxo-11,14,17,20,23,26,29,32,35-nonaoxa-3,4-dithia-7-azaheptatriacontyl (S)-(3-((4,11-diethyl-4-hydroxy-3,14-dioxo-3,4,12,14-tetrahydro-1H-pyrano[3′,4′:6,7]indolizino[1,2-b]quinolin-9-yl)oxy)propyl)carbamate], the “% of Payload Release in 24 Hours Under Cleavage Conditions” value was “+ (‘+’ indicates 5-25% release)”.
For `CCc1c2c(nc3ccc(OCCCNC(=O)OCc4ccc(NC(=O)[C@H](CCCNC(N)=O)NC(=O)[C@@H](NC(=O)CCOCCOCCOCCOCCOCCOCCOCCOCCOCCN=[N+]=[N-])C(C)C)cc4)cc13)-c1cc3c(c(=O)n1C2)COC(=O)[C@]3(O)CC` [Example 16, 4-((32S,35S)-1-azido-32-isopropyl-30,33-dioxo-35-(3-ureidopropyl)-3,6,9,12,15,18,21,24,27-nonaoxa-31,34-diazahexatriacontan-36-amido)benzyl (3-(((S)-4,11-diethyl-4-hydroxy-3,14-dioxo-3,4,12,14-tetrahydro-1H-pyrano[3′,4′:6,7]indolizino[1,2-b]quinolin-9-yl)oxy)propyl)carbamate], the “% of Payload Release in 24 Hours Under Cleavage Conditions” value was “+++ (‘+++’ indicates 51-75% release)”.
For `CCc1c2c(nc3ccc(OCCCNC(=O)OCc4ccc(NC(=O)[C@H](CCCNC(N)=O)NC(=O)[C@@H](NC(=O)CCOCCOCCOCCOCCOCCN=[N+]=[N-])C(C)C)cc4)cc13)-c1cc3c(c(=O)n1C2)COC(=O)[C@]3(O)CC` [Example 15, 4-((20S,23S)-1-azido-20-isopropyl-18,21-dioxo-23-(3-ureidopropyl)-3,6,9,12,15-pentaoxa-19,22-diazatetracosan-24-amido)benzyl (3-(((S)-4,11-diethyl-4-hydroxy-3,14-dioxo-3,4,12,14-tetrahydro-1H-pyrano[3′,4′:6,7]indolizino[1,2-b]quinolin-9-yl)oxy)propyl)carbamate], the “% of Payload Release in 24 Hours Under Cleavage Conditions” value was “++ (‘++’ indicates 26-50% release)”.
With `CCc1c2c(nc3ccc(OCc4ccc(NC(=O)[C@H](CCCNC(N)=O)NC(=O)[C@@H](NC(=O)CCOCCOCCOCCOCCOCCOCCOCCOCCOCCOCCOCCN=[N+]=[N-])C(C)C)cc4)cc13)-c1cc3c(c(=O)n1C2)COC(=O)[C@]3(O)CC` [Example 49, 1-azido-N-((S)-1-(((S)-1-((4-((((S)-4,11-diethyl-4-hydroxy-3,14-dioxo-3,4,12,14-tetrahydro-1H-pyrano[3′,4′:6,7]indolizino[1,2-b]quinolin-9-yl)oxy)methyl)phenyl)amino)-1-oxo-5-ureidopentan-2-yl)amino)-3-methyl-1-oxobutan-2-yl)-3,6,9,12,15,18,21,24,27,30,33-undecaoxahexatriacontan-36-amide] the “% of Payload Release in 24 Hours Under Cleavage Conditions” value was “+ (‘+’ indicates 5-25% release)”.
With `CCc1c2c(nc3ccc(OC(C(=O)OC)c4ccc(NC(=O)[C@H](CCCNC(N)=O)NC(=O)[C@@H](NC(=O)CCOCCOCCOCCOCCOCCOCCOCCOCCOCCOCCOCCN=[N+]=[N-])C(C)C)cc4)cc13)-c1cc3c(c(=O)n1C2)COC(=O)[C@]3(O)CC` (stereo partly drawn) [Example 14-R isomer, Methyl 2-(4-((38S,41S)-1-azido-38-isopropyl-36,39-dioxo-41-(3-ureidopropyl)-3,6,9,12,15,18,21,24,27,30,33-undecaoxa-37,40-diazadotetracontan-42-amido)phenyl)-2-(((S)-4,11-diethyl-4-hydroxy-3,14-dioxo-3,4,12,14-tetrahydro-1H-pyrano[3′,4′:6,7]indolizino[1,2-b]quinolin-9-yl)oxy)acetate] the “% of Payload Release in 24 Hours Under Cleavage Conditions” value was “+ (‘+’ indicates 5-25% release)”.
In the case of `CCc1c2c(nc3ccc(OCc4ccc(NC(=O)[C@H](CCCNC(N)=O)NC(=O)[C@@H](NC(=O)CCOCCOCCOCCOCCOCCN=[N+]=[N-])C(C)C)cc4)cc13)-c1cc3c(c(=O)n1C2)COC(=O)[C@]3(O)CC` [Example 47, 1-azido-N-((S)-1-(((S)-1-((4-((((S)-4,11-diethyl-4-hydroxy-3,14-dioxo-3,4,12,14-tetrahydro-1H-pyrano[3′,4′:6,7]indolizino[1,2-b]quinolin-9-yl)oxy)methyl)phenyl)amino)-1-oxo-5-ureidopentan-2-yl)amino)-3-methyl-1-oxobutan-2-yl)-3,6,9,12,15-pentaoxaoctadecan-18-amide], the “% of Payload Release in 24 Hours Under Cleavage Conditions” value is reported as “+ (‘+’ indicates 5-25% release)”.
For `CC[C@@]1(O)C(=O)OCc2c1cc1n(c2=O)Cc2c-1nc1cc(F)c(C)c3c1c2[C@@H](NC(=O)CSSC(C)(C)CNC(=O)CCOCCOCCOCCOCCOCCOCCOCCOCCOCCOCCOCCOCCN=[N+]=[N-])CC3` [Example 60, 1-azido-N-(2-((2-(((1S,9S)-9-ethyl-5-fluoro-9-hydroxy-4-methyl-10,13-dioxo-2,3,9,10,13,15-hexahydro-1H,12H-benzo[de]pyrano[3′,4′:6,7]indolizino[1,2-b]quinolin-1-yl)amino)-2-oxoethyl)disulfaneyl)-2-methylpropyl)-3,6,9,12,15,18,21,24,27,30,33,36-dodecaoxanonatriacontan-39-amide], the “% of Payload Release in 24 Hours Under Cleavage Conditions” value was “+++ (‘+++’ indicates 51-75% release)”.

Same assay, conditions: linker-payload conjugated to nanoparticle, 37° C., @ 3 Hrs
In the case of `CCc1c2c(nc3ccc(OCC(=O)N/N=C(/C)c4ccc(OCCOCCOCCOCCOCCOCCN=[N+]=[N-])cc4)cc13)-c1cc3c(c(=O)n1C2)COC(=O)[C@]3(O)CC` [Example 64, (S,Z)-N′-(1-(4-((17-azido-3,6,9,12,15-pentaoxaheptadecyl)oxy)phenyl)ethylidene)-2-((4,11-diethyl-4-hydroxy-3,14-dioxo-3,4,12,14-tetrahydro-1H-pyrano[3′,4′:6,7]indolizino[1,2-b]quinolin-9-yl)oxy)acetohydrazide], the “% of Payload Release Under Cleavage Conditions” value is reported as “+++ @ 3 Hrs (‘+++’ indicates 51-75% release)”.
